B1: … (peptide)
peptide: EENDQSTHKW
B2: … (peptide)
peptide: SEIEDSTKQVF
B3: … (peptide)
peptide: RELQHEHSL
B4: … (peptide)
peptide: QENSYQSRL
B5: YEDLSQKY (peptide)
peptide: YEDLSQKY
B6: … (peptide)
peptide: MEMQKSPVF
B7: … (peptide)
peptide: TEREWADEW
B8: … (peptide)
peptide: TEGIIMKDF
B9: … (peptide)
peptide: AEIQPQTQV
B10: … (peptide)
peptide: TEFPIIKMY
B11: … (peptide)
peptide: SEIEQEIGSL
B12: … (peptide)
peptide: AEEEIMKKI
B13: … (peptide)
peptide: SEIGKAVGF
B14: … (peptide)
peptide: AEDQLHHSF
B15: DEVNFLVY (peptide)
peptide: DEVNFLVY
B16: … (peptide)
peptide: SEDDPILQI
B17: … (peptide)
peptide: GELALKKKI
B18: … (peptide)
peptide: AEVGFVRFF
B19: … (peptide)
peptide: GEVSGLTKDF
B20: LVKVKVLL (peptide)
peptide: LVKVKVLL
B21: … (peptide)
peptide: RAQLKLVAL
B22: … (peptide)
peptide: ILLPRTVSL
B23: … (peptide)
peptide: HLLQKQTSI
B24: … (peptide)
peptide: VASPKHCVL
B25: … (peptide)
peptide: DIYQRALNL
B26: … (peptide)
peptide: ALKLRVAVL
B27: … (peptide)
peptide: EAAIRSVEL
B28: … (peptide)
peptide: MLKQKVEEL
B29: … (peptide)
peptide: EIRIRVVQM
B30: ILKVKVGL (peptide)
peptide: ILKVKVGL
B31: … (peptide)
peptide: VIKEKALTL
B32: LPPKKFVL (peptide)
peptide: LPPKKFVL
B33: LPFPKFTV (peptide)
peptide: LPFPKFTV
B34: MPMQDIKM (peptide)
peptide: MPMQDIKM
B35: … (peptide)
peptide: FNKRKPLSL
B36: … (peptide)
peptide: ELKKLYCQI
B37: … (peptide)
peptide: ELKKKEYEEL
B38: YMHKLLVL (peptide)
peptide: YMHKLLVL
B39: … (peptide)
peptide: DAIQRKYSC
B40: … (peptide)
peptide: EAMLRNKEL
B41: … (peptide)
peptide: MAQFKEISL
B42: … (peptide)
peptide: AIISRLVAL

The first assay has as its target HLA-B*44 (human). The assay can be described thus: UV peptide exchange ELISA.
For B1, the peptide exchange yield lay within 50 to 75%.

With B2, the peptide exchange yield lay in the range of 50 to 75%.

On to B3, for which the peptide exchange yield is 50 to 75%.

B4 showed a peptide exchange yield of 50 to 75%.

For B5, the peptide exchange yield lay within 20 to 50%.

For B6, the peptide exchange yield is 50 to 75%.

Take B7: the peptide exchange yield lay within 50 to 75%.

Turning to B8, the peptide exchange yield fell in the range of 20 to 50%.

On to B9, for which the peptide exchange yield was 50 to 75%.

Regarding B10, the peptide exchange yield fell in the range of 20 to 50%.

As to B11, the peptide exchange yield fell in the range of 50 to 75%.

The molecule B12 came in with a peptide exchange yield of 20 to 50%.

In turn, B13 came in with a peptide exchange yield of over 75%.

The molecule B14 returned a peptide exchange yield of 50 to 75%.

As for B15, the peptide exchange yield was in the range of 10 to 20%.

B16 yielded a peptide exchange yield of 50 to 75%.

Turning to B17, the peptide exchange yield is 20 to 50%.

Molecule B18 returned a peptide exchange yield of over 75%.

For the molecule B19, the peptide exchange yield fell in the range of 20 to 50%.

The target in a further assay is HLA-B*08 (human). The assay can be described thus: UV peptide exchange ELISA.
Molecule B20 displayed a peptide exchange yield of over 75%.

B21 displayed a peptide exchange yield of over 75%.

B22: the peptide exchange yield was over 75%.

As for B23, the peptide exchange yield fell in the range of 50 to 75%.

Regarding B24, the peptide exchange yield was in the range of 50 to 75%.

B25 displayed a peptide exchange yield of over 75%.

Take B26: the peptide exchange yield was over 75%.

In the case of B27, the peptide exchange yield was over 75%.

B28 returned a peptide exchange yield of over 75%.

As for B29, the peptide exchange yield was over 75%.

As for B30, the peptide exchange yield was over 75%.

In the case of B31, the peptide exchange yield lay in the range of 50 to 75%.

With B32, the peptide exchange yield was over 75%.

B33: the peptide exchange yield is over 75%.

In the case of B34, the peptide exchange yield is over 75%.

In turn, B35 returned a peptide exchange yield of 50 to 75%.

Turning to B36, the peptide exchange yield is over 75%.

Regarding B37, the peptide exchange yield is over 75%.

B38: the peptide exchange yield was over 75%.

For the molecule B39, the peptide exchange yield was in the range of 50 to 75%.

Molecule B40 registered a peptide exchange yield of over 75%.

B41 displayed a peptide exchange yield of over 75%.

Molecule B42 had a peptide exchange yield of over 75%.

These data come from patent US20220153796A1.
